From article PMC6983858, “Biochemical and structural analyses reveal that the tumor suppressor neurofibromin (NF1) forms a high-affinity dimer” (The Journal of Biological Chemistry, 2019)

T1: neurofibromin EF fragment (1821–2818) (human, UniProt P21359-2 1821-2818)
T1 construct: neurofibromin, human, NF1 isoform 2 (NM_000267.3); residues 1821-2818; numbers count on: the 2818-residue isoform; TEV cleavage (ENLYFQ/G) probably leaves a G at the N-terminus; also called EF domain; EF(1821–2818); source: Tni-FNL insect cells (baculovirus), purified; not shown: His6, N-terminal, cleaved; MBP, N-terminal, cleaved
T1 sequence (looked up): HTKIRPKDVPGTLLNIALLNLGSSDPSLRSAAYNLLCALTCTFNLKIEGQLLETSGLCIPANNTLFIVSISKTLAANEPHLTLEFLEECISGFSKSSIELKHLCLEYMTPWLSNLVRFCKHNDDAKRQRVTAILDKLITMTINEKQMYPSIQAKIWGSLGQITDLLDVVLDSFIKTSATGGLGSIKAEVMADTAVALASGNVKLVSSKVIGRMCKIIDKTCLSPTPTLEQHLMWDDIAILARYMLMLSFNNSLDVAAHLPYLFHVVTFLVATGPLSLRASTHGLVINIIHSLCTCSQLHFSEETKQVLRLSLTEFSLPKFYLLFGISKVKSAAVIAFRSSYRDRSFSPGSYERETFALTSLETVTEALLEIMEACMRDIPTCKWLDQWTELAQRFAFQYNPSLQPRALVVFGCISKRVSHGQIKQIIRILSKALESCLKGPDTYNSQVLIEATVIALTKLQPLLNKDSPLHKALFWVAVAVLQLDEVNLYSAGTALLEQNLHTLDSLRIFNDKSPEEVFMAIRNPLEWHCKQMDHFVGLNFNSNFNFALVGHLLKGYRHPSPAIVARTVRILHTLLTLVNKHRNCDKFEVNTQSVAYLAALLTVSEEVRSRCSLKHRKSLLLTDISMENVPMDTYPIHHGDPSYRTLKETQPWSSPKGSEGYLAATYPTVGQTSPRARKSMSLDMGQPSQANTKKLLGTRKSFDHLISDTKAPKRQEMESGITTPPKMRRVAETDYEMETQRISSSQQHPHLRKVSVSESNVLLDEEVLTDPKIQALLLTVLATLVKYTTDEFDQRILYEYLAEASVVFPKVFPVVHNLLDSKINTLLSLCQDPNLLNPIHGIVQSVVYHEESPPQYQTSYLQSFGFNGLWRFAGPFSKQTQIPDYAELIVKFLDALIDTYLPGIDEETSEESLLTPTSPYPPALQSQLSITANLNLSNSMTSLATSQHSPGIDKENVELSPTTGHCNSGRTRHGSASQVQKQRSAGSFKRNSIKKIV

B1: neurofibromin C*D domain (1085–1816) (domain or fragment, human, UniProt P21359-2 1085-1816, looked up)
chain: LQPEEGDGVELMEAKSQLFLKYFTLFMNLLNDCSEVEDESAQTGGRKRGMSRRLASLRHCTVLAMSNLLNANVDSGLMHSIGLGYHKDLQTRATFMEVLTKILQQGTEFDTLAETVLADRFERLVELVTMMGDQGELPIAMALANVVPCSQWDELARVLVTLFDSRHLLYQLLWNMFSKEVELADSMQTLFRGNSLASKIMTFCFKVYGATYLQKLLDPLLRIVITSSDWQHVSFEVDPTRLEPSESLEENQRNLLQMTEKFFHAIISSSSEFPPQLRSVCHCLYQVVSQRFPQNSIGAVGSAMFLRFINPAIVSPYEAGILDKKPPPRIERGLKLMSKILQSIANHVLFTKEEHMRPFNDFVKSNFDAARRFFLDIASDCPTSDAVNHSLSFISDGNVLALHRLLWNNQEKIGQYLSSNRDHKAVGRRPFDKMATLLAYLGPPEHKPVADTHWSSLNLTSSKFEEFMTRHQVHEKEEFKALKTLSIFYQAGTSKAGNPIFYYVARRFKTGQINGDLLIYHVLLTLKPYYAKPYEIVVDLTHTGPSNRFKTDFLSKWFVVFPGFAYDNVSAVYIYNCNSWVREYTKYHERLLTGLKGSKRLVFIDCPGKLAEHIEHEQQKLPAATLALEEDLKVFHNALKLAHKDTKVSIKVGSTAVQVTSAERTKVLGQSVFLNDIYYASEIEEICLVDENQFTLTIANQGTPLTFMHQECEAIVQSIIHIRTRWELSQPD
notes: neurofibromin, human, NF1 isoform 2 (NM_000267.3); numbers count on: the 2818-residue isoform; TEV cleavage (ENLYFQ/G) probably leaves a G at the N-terminus; also called CD domains; source: Tni-FNL insect cells (baculovirus), purified; not shown: His6, N-terminal, cleaved; MBP, N-terminal, cleaved
B2: neurofibromin C* domain (1085–1530) (domain or fragment, human, UniProt P21359-2 1085-1530, looked up)
chain: LQPEEGDGVELMEAKSQLFLKYFTLFMNLLNDCSEVEDESAQTGGRKRGMSRRLASLRHCTVLAMSNLLNANVDSGLMHSIGLGYHKDLQTRATFMEVLTKILQQGTEFDTLAETVLADRFERLVELVTMMGDQGELPIAMALANVVPCSQWDELARVLVTLFDSRHLLYQLLWNMFSKEVELADSMQTLFRGNSLASKIMTFCFKVYGATYLQKLLDPLLRIVITSSDWQHVSFEVDPTRLEPSESLEENQRNLLQMTEKFFHAIISSSSEFPPQLRSVCHCLYQVVSQRFPQNSIGAVGSAMFLRFINPAIVSPYEAGILDKKPPPRIERGLKLMSKILQSIANHVLFTKEEHMRPFNDFVKSNFDAARRFFLDIASDCPTSDAVNHSLSFISDGNVLALHRLLWNNQEKIGQYLSSNRDHKAVGRRPFDKMATLLAYLGPPEH
notes: neurofibromin, human, NF1 isoform 2 (NM_000267.3); numbers count on: the 2818-residue isoform; TEV cleavage (ENLYFQ/G) probably leaves a G at the N-terminus; source: Tni-FNL insect cells (baculovirus), purified; not shown: His6, N-terminal, cleaved; MBP, N-terminal, cleaved
B3: neurofibromin DEF fragment (1541–2818) (domain or fragment, human, UniProt P21359-2 1541-2818, looked up)
chain: LNLTSSKFEEFMTRHQVHEKEEFKALKTLSIFYQAGTSKAGNPIFYYVARRFKTGQINGDLLIYHVLLTLKPYYAKPYEIVVDLTHTGPSNRFKTDFLSKWFVVFPGFAYDNVSAVYIYNCNSWVREYTKYHERLLTGLKGSKRLVFIDCPGKLAEHIEHEQQKLPAATLALEEDLKVFHNALKLAHKDTKVSIKVGSTAVQVTSAERTKVLGQSVFLNDIYYASEIEEICLVDENQFTLTIANQGTPLTFMHQECEAIVQSIIHIRTRWELSQPDSIPQHTKIRPKDVPGTLLNIALLNLGSSDPSLRSAAYNLLCALTCTFNLKIEGQLLETSGLCIPANNTLFIVSISKTLAANEPHLTLEFLEECISGFSKSSIELKHLCLEYMTPWLSNLVRFCKHNDDAKRQRVTAILDKLITMTINEKQMYPSIQAKIWGSLGQITDLLDVVLDSFIKTSATGGLGSIKAEVMADTAVALASGNVKLVSSKVIGRMCKIIDKTCLSPTPTLEQHLMWDDIAILARYMLMLSFNNSLDVAAHLPYLFHVVTFLVATGPLSLRASTHGLVINIIHSLCTCSQLHFSEETKQVLRLSLTEFSLPKFYLLFGISKVKSAAVIAFRSSYRDRSFSPGSYERETFALTSLETVTEALLEIMEACMRDIPTCKWLDQWTELAQRFAFQYNPSLQPRALVVFGCISKRVSHGQIKQIIRILSKALESCLKGPDTYNSQVLIEATVIALTKLQPLLNKDSPLHKALFWVAVAVLQLDEVNLYSAGTALLEQNLHTLDSLRIFNDKSPEEVFMAIRNPLEWHCKQMDHFVGLNFNSNFNFALVGHLLKGYRHPSPAIVARTVRILHTLLTLVNKHRNCDKFEVNTQSVAYLAALLTVSEEVRSRCSLKHRKSLLLTDISMENVPMDTYPIHHGDPSYRTLKETQPWSSPKGSEGYLAATYPTVGQTSPRARKSMSLDMGQPSQANTKKLLGTRKSFDHLISDTKAPKRQEMESGITTPPKMRRVAETDYEMETQRISSSQQHPHLRKVSVSESNVLLDEEVLTDPKIQALLLTVLATLVKYTTDEFDQRILYEYLAEASVVFPKVFPVVHNLLDSKINTLLSLCQDPNLLNPIHGIVQSVVYHEESPPQYQTSYLQSFGFNGLWRFAGPFSKQTQIPDYAELIVKFLDALIDTYLPGIDEETSEESLLTPTSPYPPALQSQLSITANLNLSNSMTSLATSQHSPGIDKENVELSPTTGHCNSGRTRHGSASQVQKQRSAGSFKRNSIKKIV
notes: neurofibromin, human, NF1 isoform 2 (NM_000267.3); numbers count on: the 2818-residue isoform; TEV cleavage (ENLYFQ/G) probably leaves a G at the N-terminus; also called NF1-DEF; source: Tni-FNL insect cells (baculovirus), purified; not shown: His6, N-terminal, cleaved; MBP, N-terminal, cleaved
B4: neurofibromin CDEF fragment (861–2818) (domain or fragment, human, UniProt P21359-2 861-2818, looked up)
chain: ATYSPPMGPVSERKGSMISVMSSEGNADTPVSKFMDRLLSLMVCNHEKVGLQIRTNVKDLVGLELSPALYPMLFNKLKNTISKFFDSQGQVLLTDTNTQFVEQTIAIMKNLLDNHTEGSSEHLGQASIETMMLNLVRYVRVLGNMVHAIQIKTKLCQLVEVMMARRDDLSFCQEMKFRNKMVEYLTDWVMGTSNQAADDDVKCLTRDLDQASMEAVVSLLAGLPLQPEEGDGVELMEAKSQLFLKYFTLFMNLLNDCSEVEDESAQTGGRKRGMSRRLASLRHCTVLAMSNLLNANVDSGLMHSIGLGYHKDLQTRATFMEVLTKILQQGTEFDTLAETVLADRFERLVELVTMMGDQGELPIAMALANVVPCSQWDELARVLVTLFDSRHLLYQLLWNMFSKEVELADSMQTLFRGNSLASKIMTFCFKVYGATYLQKLLDPLLRIVITSSDWQHVSFEVDPTRLEPSESLEENQRNLLQMTEKFFHAIISSSSEFPPQLRSVCHCLYQVVSQRFPQNSIGAVGSAMFLRFINPAIVSPYEAGILDKKPPPRIERGLKLMSKILQSIANHVLFTKEEHMRPFNDFVKSNFDAARRFFLDIASDCPTSDAVNHSLSFISDGNVLALHRLLWNNQEKIGQYLSSNRDHKAVGRRPFDKMATLLAYLGPPEHKPVADTHWSSLNLTSSKFEEFMTRHQVHEKEEFKALKTLSIFYQAGTSKAGNPIFYYVARRFKTGQINGDLLIYHVLLTLKPYYAKPYEIVVDLTHTGPSNRFKTDFLSKWFVVFPGFAYDNVSAVYIYNCNSWVREYTKYHERLLTGLKGSKRLVFIDCPGKLAEHIEHEQQKLPAATLALEEDLKVFHNALKLAHKDTKVSIKVGSTAVQVTSAERTKVLGQSVFLNDIYYASEIEEICLVDENQFTLTIANQGTPLTFMHQECEAIVQSIIHIRTRWELSQPDSIPQHTKIRPKDVPGTLLNIALLNLGSSDPSLRSAAYNLLCALTCTFNLKIEGQLLETSGLCIPANNTLFIVSISKTLAANEPHLTLEFLEECISGFSKSSIELKHLCLEYMTPWLSNLVRFCKHNDDAKRQRVTAILDKLITMTINEKQMYPSIQAKIWGSLGQITDLLDVVLDSFIKTSATGGLGSIKAEVMADTAVALASGNVKLVSSKVIGRMCKIIDKTCLSPTPTLEQHLMWDDIAILARYMLMLSFNNSLDVAAHLPYLFHVVTFLVATGPLSLRASTHGLVINIIHSLCTCSQLHFSEETKQVLRLSLTEFSLPKFYLLFGISKVKSAAVIAFRSSYRDRSFSPGSYERETFALTSLETVTEALLEIMEACMRDIPTCKWLDQWTELAQRFAFQYNPSLQPRALVVFGCISKRVSHGQIKQIIRILSKALESCLKGPDTYNSQVLIEATVIALTKLQPLLNKDSPLHKALFWVAVAVLQLDEVNLYSAGTALLEQNLHTLDSLRIFNDKSPEEVFMAIRNPLEWHCKQMDHFVGLNFNSNFNFALVGHLLKGYRHPSPAIVARTVRILHTLLTLVNKHRNCDKFEVNTQSVAYLAALLTVSEEVRSRCSLKHRKSLLLTDISMENVPMDTYPIHHGDPSYRTLKETQPWSSPKGSEGYLAATYPTVGQTSPRARKSMSLDMGQPSQANTKKLLGTRKSFDHLISDTKAPKRQEMESGITTPPKMRRVAETDYEMETQRISSSQQHPHLRKVSVSESNVLLDEEVLTDPKIQALLLTVLATLVKYTTDEFDQRILYEYLAEASVVFPKVFPVVHNLLDSKINTLLSLCQDPNLLNPIHGIVQSVVYHEESPPQYQTSYLQSFGFNGLWRFAGPFSKQTQIPDYAELIVKFLDALIDTYLPGIDEETSEESLLTPTSPYPPALQSQLSITANLNLSNSMTSLATSQHSPGIDKENVELSPTTGHCNSGRTRHGSASQVQKQRSAGSFKRNSIKKIV
notes: neurofibromin, human, NF1 isoform 2 (NM_000267.3); residues 861-2818; numbers count on: the 2818-residue isoform; TEV cleavage (ENLYFQ/G) probably leaves a G at the N-terminus; also called NF1-CDEF; NF1(861–2818); source: Tni-FNL insect cells (baculovirus), purified; not shown: His6, N-terminal, cleaved; MBP, N-terminal, cleaved

Columns and labels:
[1] = target: T1, neurofibromin EF fragment (1821–2818); assay: SEC; equimolar mixtures of two purified NF1 fragments on an analytical SEC column, fractions analysed by SDS-PAGE; settings: both partners purified
[2] = target: T2, neurofibromin ABC fragment (2–1540) (human, UniProt P21359-2 2-1540); assay: as above; settings: both partners purified
T2 construct: neurofibromin, human, NF1 isoform 2 (NM_000267.3); numbers count on: the 2818-residue isoform; TEV cleavage (ENLYFQ/G) probably leaves a G at the N-terminus; also called NF1-ABC; source: Tni-FNL insect cells (baculovirus), purified; not shown: His6, N-terminal, cleaved; MBP, N-terminal, cleaved

[3] = target: the molecule itself; assay: AUC; sedimentation velocity of CDEF, 2.2 to 8.8 μM, 40,000 rpm, 20 °C, 300 mM NaCl, 20 mM HEPES-NaOH pH 7.3, 5 mM TCEP

T2 sequence (P21359 other isoform, or with tags, fused parts or gaps): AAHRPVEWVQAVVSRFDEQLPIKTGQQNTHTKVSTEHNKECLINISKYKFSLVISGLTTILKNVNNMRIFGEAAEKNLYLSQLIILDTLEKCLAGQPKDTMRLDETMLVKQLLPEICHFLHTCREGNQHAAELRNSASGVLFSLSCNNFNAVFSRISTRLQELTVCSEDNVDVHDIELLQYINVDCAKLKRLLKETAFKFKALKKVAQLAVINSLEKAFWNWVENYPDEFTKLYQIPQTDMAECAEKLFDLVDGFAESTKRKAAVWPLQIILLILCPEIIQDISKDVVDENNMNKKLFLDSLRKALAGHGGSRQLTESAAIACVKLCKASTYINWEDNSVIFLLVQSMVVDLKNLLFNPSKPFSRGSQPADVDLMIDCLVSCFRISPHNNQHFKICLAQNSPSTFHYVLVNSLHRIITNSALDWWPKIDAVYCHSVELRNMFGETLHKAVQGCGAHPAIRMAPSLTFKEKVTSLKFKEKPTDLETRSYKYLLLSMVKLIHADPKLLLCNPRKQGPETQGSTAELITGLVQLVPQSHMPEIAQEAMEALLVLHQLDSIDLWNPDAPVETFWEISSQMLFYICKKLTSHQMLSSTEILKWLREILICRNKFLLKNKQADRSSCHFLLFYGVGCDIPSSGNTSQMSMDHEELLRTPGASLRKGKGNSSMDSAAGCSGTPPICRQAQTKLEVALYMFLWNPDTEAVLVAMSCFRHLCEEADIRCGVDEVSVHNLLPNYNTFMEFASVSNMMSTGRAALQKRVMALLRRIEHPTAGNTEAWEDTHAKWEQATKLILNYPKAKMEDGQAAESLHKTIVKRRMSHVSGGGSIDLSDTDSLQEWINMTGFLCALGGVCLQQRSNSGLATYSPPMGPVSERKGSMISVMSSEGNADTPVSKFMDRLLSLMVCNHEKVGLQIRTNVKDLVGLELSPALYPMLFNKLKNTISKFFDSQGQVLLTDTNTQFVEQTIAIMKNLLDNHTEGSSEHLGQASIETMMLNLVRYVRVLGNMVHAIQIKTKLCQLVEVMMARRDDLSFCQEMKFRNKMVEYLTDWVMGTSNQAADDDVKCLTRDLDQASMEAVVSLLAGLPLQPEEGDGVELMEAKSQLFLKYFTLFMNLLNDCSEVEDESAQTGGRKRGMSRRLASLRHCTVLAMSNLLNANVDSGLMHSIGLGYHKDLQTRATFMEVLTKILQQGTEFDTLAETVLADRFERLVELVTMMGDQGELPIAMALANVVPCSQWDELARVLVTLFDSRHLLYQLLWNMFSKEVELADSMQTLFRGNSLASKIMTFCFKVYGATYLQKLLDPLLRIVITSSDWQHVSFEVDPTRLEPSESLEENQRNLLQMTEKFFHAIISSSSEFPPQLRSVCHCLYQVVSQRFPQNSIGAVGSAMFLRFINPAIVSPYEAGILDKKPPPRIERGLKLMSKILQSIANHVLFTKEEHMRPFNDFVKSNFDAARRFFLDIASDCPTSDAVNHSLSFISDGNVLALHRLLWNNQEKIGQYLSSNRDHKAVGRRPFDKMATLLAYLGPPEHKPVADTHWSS

| Binder | binding result [1] | further results |
| --- | --- | --- |
| B1 | binds |  |
| B2 | binds |  |
| B3 |  | binding result [2]: binds |
| B4 |  | stoichiometry N [3]: 2 |
